According to the supplement of paper PMC10567573:

B1: ANKRD44 (parent)
chain: FHCIETLVTTGANVNETDDWGRTA

Variants of: B1
Experiment: protein stability index of a GFP-peptide fusion (GPS, HEK-293T) (PSI 1-6); higher = more stable
Details: c terminus: a fixed tail appended
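Also: lentivirally expressed fusions sorted by FACS into six bins by GFP to DsRed ratio, PSI derived from sequencing read proportions per bin multiplied by bin number.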

Protein stability index of substitutions, site by site:
E16: S 1.78, C 2.16, N 1.97, K 2.5, L 1.8, P 2, Q 1.45, G 1.79, W 2.43, R 1.76
G21: C 1.76, M 2.04, K 2.42, F 1.87, V 2.27, L 2.12, A 2.12, E 2.33, S 1.89, Q 2.21, P 1.98, W 2.48, T 2.25
G11: Y 2.39, C 2.09, H 1.53, D 2.88, M 1.5, P 2.23, E 2.94, F 1.47, L 2.44, V 2.09, Q 1.74, K 2.29
D18: G 1.79, C 2.14, P 1.71, R 2.17, H 1.54, V 2.43, T 1.85, A 2.07, Q 1.69, S 2.18, W 2.07
V14: Q 2.11, F 2.14, L 2.08, K 2.31, Y 1.77, T 2.93, M 2.07, N 3, E 3.04, I 1.82, A 2.2, C 2.19, H 1.94, S 2.41
C3: I 1.78, H 2.79, K 3.8, W 2.47, R 2.47, L 2.05, S 2.69, D 3.62
T6: N 2.52, W 3.88, D 3.61, G 1.73, E 2.69, Y 3.59, C 1.75, R 1.96, L 3.01, M 2.18, V 3.28
E5: I 2.98, D 2.23, Y 3.36, N 2.03, K 2.14, Q 1.48, A 2.31, T 1.82, G 2.11, S 1.92
L7: F 2.86, P 3.04, H 2.56, V 2.19, D 4.03, Y 3.58, S 2.57, Q 2.49, E 3.82, A 2.2, G 2.42, K 2.89, C 2.01
N15: C 1.9, I 1.54, A 1.76, H 2.17, V 2, R 2.01, K 2.44, W 2.14, F 1.96, M 1.69, E 2.13, Y 1.96, S 1.64
D19: S 1.72, G 1.79, Q 2.06, E 2.49, A 1.56, K 2.05, F 2.58, V 2.18, I 3.48, M 2, N 1.75, L 2.09, H 1.73, C 2.15
T9: E 3.12, S 2.23, L 1.77, N 2.56, Q 2.63, Y 1.54, V 1.6, A 2.01, M 1.45, D 3.26, R 1.86, F 1.25, I 2.67
W20: R 2.57, L 3.26, F 2.66, T 3.27, A 2.99, K 3.03, E 3.19, M 2.47, D 3.2, Y 2.51, V 2.77, G 2.52
F1: C 2.18, G 4.25, V 3.68, N 4.5, H 4.18, Q 4.54, I 3.13, D 4.81, A 4.69, K 4.18, R 3.48, W 3.18, E 4.77
